# Test results taken from paper PMC5099578, “A structural and functional study on the 2-C-methyl-D-erythritol-4-phosphate cytidyltransferase (IspD) from Bacillus subtilis” (Scientific Reports, 2016).
# Target: the molecule itself
# Assay: crystal structure; apo form I, space group P2_(1)2_(1)2_(1), crystallization condition I, hanging drop at 18 °C; two molecules in the asymmetric unit; 1.80 Å
protein,measurement,value
"2-C-methyl-D-erythritol-4-phosphate cytidyltransferase (IspD) from Bacillus subtilis (enzyme, Bacillus subtilis 168, IspD of Bacillus subtilis 168 (DSM 23778); the IspD gene amplified from genomic DNA as a 699 bp product; 232 residues built in apo form I (residues numbered up to 232); 699 bp fits 232 codons and a stop codon, so probably the whole gene; Cloned BamHI/XhoI in pGEX-6P-1; GST removed by PreScission protease, so a few vector residues may be left at the N-terminus (surmised); also called BsIspD; …) MSYDVVIPAAGQGKRMKAGRNKLFIELKGDPVIIHTLRVFDSHRQCDKIILVINEQEREHFQQLLSDYPFQTSIELVAGGDERQHSVYKGLKAVKQEKIVLVHDGARPFIKHEQIDELIAEAEQTGAAILAVPVKDTIKRVQDLQVSETIERSSLWAVQTPQAFRLSLLMKAHAEAERKGFLGTDDASLVEQMEGGSVRVVEGSYTNIKLTTPDDLTSAEAIMESESGNKHV",stoichiometry N,2
